Source: patent US20230265148A1
“And” between values parts separate entries of the source, which are not always exact repeats. Equal values may be shown once.

Target: human IL-2 receptor αβγ trimer on CHO-K1 cells (CHO-K1 hIL-2R αβγ 2D6) (human) (UniProt P01589)
Test: FACS on CHO-K1 hIL-2R αβγ 2D6 cells

Chain of UniProt P01589 (P01589 22-272 limits assumed, chain 1 of 3): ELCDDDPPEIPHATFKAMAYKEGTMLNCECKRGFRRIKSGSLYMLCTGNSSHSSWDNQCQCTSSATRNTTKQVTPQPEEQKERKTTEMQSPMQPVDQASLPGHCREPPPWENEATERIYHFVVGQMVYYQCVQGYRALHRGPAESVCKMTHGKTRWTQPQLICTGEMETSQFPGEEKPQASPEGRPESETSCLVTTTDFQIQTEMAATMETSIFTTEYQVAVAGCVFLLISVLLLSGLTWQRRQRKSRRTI
Chain of UniProt P01589 (chain, as listed by the source limits assumed, chain 2 of 3): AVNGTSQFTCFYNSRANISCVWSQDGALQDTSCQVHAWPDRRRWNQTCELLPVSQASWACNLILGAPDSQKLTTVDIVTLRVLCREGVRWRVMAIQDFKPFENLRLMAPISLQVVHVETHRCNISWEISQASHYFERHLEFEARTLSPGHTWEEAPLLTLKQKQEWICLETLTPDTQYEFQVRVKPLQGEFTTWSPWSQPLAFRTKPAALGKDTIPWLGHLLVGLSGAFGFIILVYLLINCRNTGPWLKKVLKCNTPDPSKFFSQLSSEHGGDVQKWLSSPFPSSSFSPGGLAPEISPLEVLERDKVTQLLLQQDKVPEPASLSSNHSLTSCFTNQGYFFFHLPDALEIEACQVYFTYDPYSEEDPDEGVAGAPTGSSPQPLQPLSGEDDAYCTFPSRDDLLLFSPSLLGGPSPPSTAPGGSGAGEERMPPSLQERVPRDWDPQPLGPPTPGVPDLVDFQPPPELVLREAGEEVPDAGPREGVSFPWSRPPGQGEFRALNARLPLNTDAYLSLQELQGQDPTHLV
Chain of UniProt P01589 (chain, as listed by the source limits assumed, chain 3 of 3): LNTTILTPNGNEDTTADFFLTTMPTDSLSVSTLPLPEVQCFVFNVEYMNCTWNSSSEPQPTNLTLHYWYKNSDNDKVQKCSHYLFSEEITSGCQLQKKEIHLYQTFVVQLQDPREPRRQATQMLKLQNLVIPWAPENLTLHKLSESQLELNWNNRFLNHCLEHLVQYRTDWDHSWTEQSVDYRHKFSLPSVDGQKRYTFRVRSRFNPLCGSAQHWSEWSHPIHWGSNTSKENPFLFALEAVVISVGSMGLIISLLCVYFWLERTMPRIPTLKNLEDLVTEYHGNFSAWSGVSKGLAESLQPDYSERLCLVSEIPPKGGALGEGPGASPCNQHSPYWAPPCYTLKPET

MFI at 0.0003 nM: 146 MFI | MFI at 0.0017 nM: 120 MFI and 140 MFI | MFI at 0.0085 nM: 119 MFI and 145 MFI | MFI at 0.0427 nM: 274 MFI and 144 MFI | MFI at 0.2133 nM: 181 MFI and 139 MFI | MFI at 1.0667 nM: 157 MFI and 138 MFI | MFI at 5.3333 nM: 124 MFI and 136 MFI | MFI at 26.667 nM: 118 MFI and 187 MFI
Substance: Human IgG control (antibody)
